Results from patent US20160230155A1.

B1: sulfamidase (SEQ ID NO:2) chemically modified according to the known method (WO 2008/109677): 20 mM sodium meta-periodate 0 °C 6.5 h, dialysis, 100 mM sodium … (enzyme)
chain: GSRPRNALLLLADDGGFESGAYNNSAIATPHLDALARRSLLFRNAFTSVSSCSPSRASLLTGLPQHQNGMYGLHQDVHHFNSFDKVRSLPLLLSQAGVRTGIIGKKHVGPETVYPFDFAYTEENGSVLQVGRNITRIKLLVRKFLQTQDDRPFFLYVAFHDPHRCGHSQPQYGTFCEKFGNGESGMGRIPDWTPQAYDPLDVLVPYFVPNTPAARADLAAQYTTVGRMDQGVGLVLQELRDAGVLNDTLVIFTSDNGIPFPSGRTNLYWPGTAEPLLVSSPEHPKRWGQVSEAYVSLLDLTPTILDWFSIPYPSYAIFGSKTIHLTGRSLLPALEAEPLWATVFGSQSHHEVTMSYPMRSVQHRHFRLVHNLNFKMPFPIDQDFYVSPTFQDLLNRTTAGQPTGWYKDLRHYYYRARWELYDRSRDPHETQNLATDPRFAQLLEMLRDQLAKWQWETHDPWVCAPDGVLEEKLSPQCQPLHNEL
modifications: N-glycans at N(21), N(131), N(244), N(393) of SEQ ID NO:1 disrupted by periodate oxidation and borohydride reduction; FGly50 about 56% converted to Ser50; methionine 184 and methionine 443 almost completely oxidized
B2: sulfamidase (SEQ ID NO:2) chemically modified according to new method 2: 20 mM sodium meta-periodate 0 °C 120 min, 10 mM sodium borohydride 0 °C 120 min (enzyme)
chain: B1 chain
modifications: N-glycans of SEQ ID NO:1 sites disrupted by periodate oxidation and borohydride reduction; FGly50 about 11.5% converted to Ser50
B3: sulfamidase (SEQ ID NO:2) chemically modified according to new method 1: 20 mM sodium meta-periodate 0 °C 120 min, 50 mM sodium borohydride 0 °C 120 min (enzyme)
chain: B1 chain
modifications: N-glycans at N(21), N(131), N(244), N(393) of SEQ ID NO:1 disrupted by periodate oxidation and borohydride reduction; FGly50 about 45% converted to Ser50

These binders were tested against M6P receptors expressed on MEF-1 fibroblasts (assay: cell-based or functional assay).

Q: B1 was tested. Which receptor mediated endocytosis in MEF-1 cells: specific activity in cell homogenate relative to unmodified recombinant sulfamidase (% of unmodified recombinant sulfamidase) did it give?
A: < 10

Q: B2 was tested. Which receptor mediated endocytosis in MEF-1 cells: specific activity in cell homogenate relative to unmodified recombinant sulfamidase (% of unmodified recombinant sulfamidase) did it give?
A: < 10

Q: Which receptor mediated endocytosis in MEF-1 cells: specific activity in cell homogenate relative to unmodified recombinant sulfamidase (% of unmodified recombinant sulfamidase) does the source give for B3 here?
A: < 10
